Results from publication doi:10.1101/2023.04.17.536592.

Legend:
[1] = target: H. sapiens nucleosome core particle (NCP) (human); test: native gel or EMSA
[2] = target: Kaposi's Sarcoma Herpesvirus Latency Associated Nuclear Antigen (LANA) peptide (Kaposi's Sarcoma Herpesvirus); test: fluorescence polarisation
Chain of Kaposi's Sarcoma Herpesvirus Latency Associated Nuclear Antigen (LANA) peptide (Kaposi's Sarcoma Herpesvirus) (Q9QR71 4-23): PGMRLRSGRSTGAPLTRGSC

Substance | Kd [1] [nM] | Kd [2] [nM]
GST-His-TEV-tagged PFV GAG (from UniProt P14349 535-550) (peptide) | 3500 | –
H. sapiens nucleosome core particle (NCP) (complex) | – | 2380
